Experimental data from US20240150797A1, “BIOCATALYTICAL PRODUCTION OF DIHYDROCHALCONES” (Symrise AG, priority 2021, published 2024).
Residue numbers refer to the chain shown, from its start.

B1: CHI4: Chalcone isomerase from Acetoanaerobium noterae, access no. WP_079589066.1 (protein, listed as Acetoanaerobium noterae)
chain: ADFEFNPMRSLIYVDVVKEDYRHMLKHWLYRHHIPDSISQFGPYVTKYAFYPALPTPPEGDRFGTIRMQLTEHYWTVNPFTSNFKNKAFTEFFPIDILKWQGNIPDDSKVAALEGEEVVKLEGDDARASGGDNGCPPFIFAFVPICWEEDFKGSQRTVEDGPNYRWQFVMKYPEGVTMKEGDKWFYEEMIPKFKDMPDVLRILSSKIIQQVNGCPYHRVVEMWFNCPSAWYRSAVEKAKEIKKPSWAKYDVFPYLKPKFEIASLFLTDIAESDNYSQYRGYITMR
B2: CHI5: Chalcone isomerase from Parasporobacterium paucivorans, access no. WP_073993359.1 (protein)
chain: GPEFQPMRSLIYVDCVKEEYRHRLQNWLYHYHVPDSISQFAPYVSKYCFYNALPTPPEGERFGTIRQQLTEHYWMVNPFTEHFKNKALTEYFPCDVLKWQGNIPDDDLEVNFEGDEARSKGGHNGCAPFIFAFLPLCWEEDFKGKERTIENGPNYRWNFVMKYPEGTSMEEGDKWFYEKMIPAFQEMPEVTRILTSKVIQSINGCAFHRVVEMWFDGPNAWYQAAVVKAKNIEKPSWASVDAFPYLQATFEFDGIFLTDYAASDNMSQYRGYLAMR
modifications: Parasporobacterium paucivorans
B3: CHI6: Chalcone isomerase from Lachnoclostridium sp., access no. HCD45524.1 (protein, listed as Lachnoclostridium sp.)
chain: GTEFDPMRSFIYVDVIKEEYRHKLQHWLYFHHIPESISQFEPYCTKYAFYNALPVPEGGERFGTARMQITEHSWLVNIMDPALKVKAFQEYMPIEALKWQGTVPETAGDVLMSGDDARCTGGNNGCMPFVFAFCPMWWEEDVKGAGRTLTEGANYRWNFALTYPEGISKEEGDKWLFEEVFPYFEANNCCTRILTSKVRQEINGCPMYRVVEMWFTGPTAWHHLAVETADKIKSPSWAKDGDVFPYLKSGFEIRGAFVTDYPTCDAYSQYRGYIPRR
B4: CHI8: Chalcone isomerase from Roseburia sp., access no. SCJ10619.1 (protein, listed as Roseburia sp.)
chain: RSLIYVDVAKEQYRVKLNHWLYAVHVPESISKFRPYVSQYAFYNALPVPPLGEQFGTVRMQLTEHYWQVNPMDVSMAVNVFTETFPTEVLIWQGNMPENAIALNYEGDEARSAKVENCNPFVFAFLPISWEEDLKGAGRTMADGPNYRWNFALHYPDGVSVETGDQWFYEKFVPAFLEIPEATRMVTSKIIKEINDCPMDRVVEIWFEGPDQWSAAMEKAKSIEPPEWAQEETFPYLKPYQNIMGVFVADNISSDNLNNHRGYITMR
B5: CHI9: Chalcone isomerase from Roseburia sp. OM02-15, access no. WP_118702262.1 (protein)
chain: GEITYQPLRSLIYVDCVKEEYRHKLQHWLYYYHAPESIAKFEPWVTKYAFYNALPTPPQGERFGTYRMQLTEHYWMVNPMSQESLVNSLNEYFPIDAMIWQGTLPENAKEDGFMADGEAARASGGDNGCPPFIFAFLPIFWEQDLKGAGRTMVDGPNYRWQFLVSYPEGHKEDGDQWMMNEVLPAFAAMPEVTRMMTSKVKKEINNCHMDRCVEMWFDGPEEWYHCAVENAASFKKPEWAEYDNFPYLRPQFQFASLFLTDIATSDNLKQYRGYLPMR
modifications: Roseburia sp. OM02-15
B6: CHIera: Chalcone isomerase from Eubacterium ramulus (protein, listed as Eubacterium ramulus)
chain: ADFKFEPMRSLIYVDCVSEDYRPKLQRWIYKVHIPDSISQFEPYVTKYAFYPSFPIPPQGDRFGYARMQLTEHHWLVSDLDPRLEIKAIAETFPMDVLVWQGQIPAAAHTDAQIDSDGDAGNAARKSNNAEGNPFIFAFLPMWWEKDLKGKGRTIEDGANYRFNMTIGFPEGVDKAEGEKWLFEKVVPILQAAPECTRVLASAVKKDINGCVMDWVLEIWFENQSGWYKVMVDDMKALEKPSWAQQDAFPFLKPYHNVCSAAVADYTPSNNLANYRGYITMR
B7: CHIera Mut1: Chalcone isomerase variant 1 from Eubacterium ramulus, genetically engineered (protein, listed as Eubacterium ramulus)
chain: MADFKFEPMRSLIYVDCVSEDYRPKLQRWIYKVHIPDSISKFEPYVTKYAFYPSFPIPPQGDRFGYARMQLTEHHWLVSELDPRLEINAIAETFPMDVLVWQGQIPAAAHTDAQIDSDGDAGRAAGKSNNAEGNPFIFAFLPMWWEKDLKGKGRTIEDGANYRFNMTIGFPEGVDKAEGEKWLFEKVVPILQAAPECTRVLASAVKKDINGCVMDWVLEIWFENQSGWYKVMVDDMKALEKPSWAQQDAFPFLKPYHNVCSAAVADYTPSNNLANYRGYITMR
B8: CHIera Mut3: Chalcone isomerase variant 3 from Eubacterium ramulus, genetically engineered (protein, listed as Eubacterium ramulus)
chain: B7 chain with K41N, N88K
B9: CHIera Mut5: Chalcone isomerase variant 5 from Eubacterium ramulus, genetically engineered (protein, listed as Eubacterium ramulus)
chain: B7 chain with E80P, G126K
B10: CHIera Mut6: Chalcone isomerase variant 6 from Eubacterium ramulus, genetically engineered (protein, listed as Eubacterium ramulus)
chain: B7 chain with K41N, N88R, R123D, G126R
B11: CHIera Mut8: Chalcone isomerase variant 8 from Eubacterium ramulus, genetically engineered (protein, listed as Eubacterium ramulus)
chain: B7 chain with E80P, R123E, G126R
B12: CHIera Mut13: Chalcone isomerase variant 13 from Eubacterium ramulus, genetically engineered (protein, listed as Eubacterium ramulus)
chain: B7 chain with E80P, G122D, R123D, G126R

Experiment: Specific activity of purified CHI, absorbance decrease at 384 nm, hesperetin chalcone
Assay type: biochemical
Details: purified CHI in 50 mM PBS, 100 μM substrate, 25° C.
Experimental: (§1) E. coli BL21 (DE3) cells containing one of the pET28b plasmids from Table 2 or Table 3 were used to inoculate 1 L LB medium at OD of 0.1. Cells were incubated at 37° C., 250 rpm until the OD reached 0.4-0.6 and induced by supplementing with 0.1 mM IPTG. After protein expression at 28° C., 250 rpm for 16 h, the cells were harvested by centrifugation at 4,000×g for 15 min. The harvested cells were lysed with 0.5 mg/mL lysozyme (Sigma-Aldrich), 0.4 U/mL Benzonase (Sigma-Aldrich) and BugBuster (Merck) at room temperature for 0.5 h to obtain a crude cell extract. The crude extract was centrifuged at 10,000×g for 30 min to remove the pellet. Recombinant proteins were purified by Ni-affinity chromatography (GE Healthcare). The supernatant of the crude extract was loaded on the column with 20 mM imidazole. The column was washed by 5 column volumes of 30 mM imidazole with 20 mM PBS (pH 7.4) and 500 mM NaCl. The target proteins were eluted by 150 mM imidazole with 20 mM PBS (pH 7.4) and 500 mM NaCl. Buffer exchange with 50 mM PBS (pH 7.5) was achieved by ultrafiltration with Amicon Ultra-15 (Merck). The activity of the respective purified enzyme was determined by measuring the absorbance decrease at 384 nm in the reaction mix (CHI in 50 mM PBS with 100 μM of either naringenin chalcone, hesperetin chalcone, eriodictyol chalcone, homoeriodictyol chalcone or 4-O-methyl butein at 25° C.).

Molecule | Specific activity, Hesperetin chalcone
B1 | 58.5
B2 | 84.5
B3 | 3.3
B4 | 19.2
B5 | 43.0
B6 | 31.5
B7 | 93.2
B8 | 55.1
B9 | 4.5
B10 | 30.3
B11 | 83.9
B12 | 107.1

Experiment: Specific activity of purified CHI, absorbance decrease at 384 nm, eriodictyol chalcone
Assay type: biochemical
Details: purified CHI in 50 mM PBS, 100 μM substrate, 25° C.
Experimental: as §1

Molecule | Specific activity, Eriodictyol chalcone
B1 | 34.4
B2 | 82.7
B3 | 17.0
B4 | 33.9
B5 | 69.7
B6 | 90.7
B7 | 59.5
B8 | 39.2
B9 | 13.5
B10 | 52.4
B11 | 49.0
B12 | 28.0

Experiment: Specific activity of purified CHI, absorbance decrease at 384 nm, naringenin chalcone
Assay type: biochemical
Details: purified CHI in 50 mM PBS, 100 μM substrate, 25° C.
Experimental: as §1

Molecule | Specific activity, Naringenin chalcone
B1 | 46.6
B2 | 59.9
B3 | 16.8
B4 | 73.5
B5 | 22.7
B6 | 270.0
B7 | 32.6
B8 | 16.7
B9 | 8.0
B10 | 17.1
B11 | 25.6
B12 | 28.0

Experiment: Specific activity of purified CHI, absorbance decrease at 384 nm, 4-O-methyl butein
Assay type: biochemical
Details: purified CHI in 50 mM PBS, 100 μM substrate, 25° C.
Experimental: as §1

Molecule | Specific activity, 4-O-methyl butein
B1 | 0.4
B2 | 0.4
B3 | 0.1
B4 | 1.2
B5 | 0.4
B6 | 0.1
B7 | 0.4
B8 | 0.3
B9 | 0.1
B10 | 0.4
B11 | 0.5
B12 | 1.4

Experiment: Specific activity of purified CHI, absorbance decrease at 384 nm, homoeriodictyol chalcone
Assay type: biochemical
Details: purified CHI in 50 mM PBS, 100 μM substrate, 25° C.
Experimental: as §1

Molecule | Specific activity, Homoeriodctiol chalcone
B1 | 15.2
B2 | 19.7
B3 | 8.1
B4 | 22.8
B5 | 10.4
B6 | 44.5
B7 | 23.7
B8 | 13.0
B9 | 8.8
B10 | 20.0
B11 | 21.2
B12 | 33.6
